No end group written: not given here.

The subject of one experiment is purified I-A^g7.
Assay: not given
To be noted: cited from earlier work.
As for “HEL 11–25: HEL peptide tested by Carrasco-Marin et al. (AMKRHGLDNYRGYSL; UniProt P00698 29-43, looked up, fragment)”, the “direct binding to purified I-A^g7” value is “unable to demonstrate direct binding”.

Another experiment has as its target I-A^g7 (mouse (NOD; endogenous in 4G4.7 hybridoma)). The experiment can be described thus: ELISA.
Settings: not given
HEL 9–17 (peptide) showed a 50% inhibitory concentration (IC50) above 50 µM. In the case of HEL 9–21 (peptide), the IC50 was 0.3 µM. HEL 9–22 (peptide) had an IC50 of 0.3 µM. The substance HEL 9–24 (peptide) came in with a half-maximal inhibitory concentration (IC50) of 0.2 µM. Same read-out and setting: the result for HEL 9–25 (peptide) reads 0.3 µM; that for HEL 9–26 (peptide), 0.3 µM. Same read-out and setting: the result for HEL 9–27 (peptide) reads 0.35 µM. The substance HEL 10–22 (peptide) gave an IC50 of 0.295 µM.

HEL 10–22 A10L (peptide) showed a 50% inhibitory concentration (IC50) of 0.3 µM. Substance HEL 10–22 A11Y (peptide) returned an IC50 of 0.35 µM. Still for that read-out and setting: to HEL 10–22 D18E (peptide) belongs below 1 µM. On to HEL 10–22 D18P (peptide), for which the IC50 was 0.3 µM.

Substance HEL 10–22 D18Q (peptide) had a concentration for half-maximal inhibition (IC50) of 0.2 µM.

For the substance HEL 10–22 D18R (peptide), the IC50 was below 1 µM. Still for that read-out and setting: to HEL 10–22 D18Y (peptide) belongs 0.1 µM. Still for that read-out and setting: the result for HEL 10–22 G16D (peptide) reads 2 µM.

HEL 10–22 G22A (peptide) displayed an IC50 of 0.35 µM. Same read-out and setting: the result for HEL 10–22 G22P (peptide) reads 0.65 µM. Substance HEL 10–22 G22Y (peptide) returned an IC50 of 0.3 µM. As for HEL 10–22 H15A (peptide), the concentration for half-maximal inhibition (IC50) is 0.3 µM. In turn, HEL 10–22 H15D (peptide) yielded an IC50 of 1.75 µM.

Consider HEL 10–22 K13A (peptide), for which the 50% inhibitory concentration (IC50) was determined as 0.3 µM.

The substance HEL 10–22 K13Y (peptide) gave an IC50 of 0.25 µM. In turn, HEL 10–22 L17F (peptide) gave an IC50 of 1 to 10 µM. The substance HEL 10–22 L17H (peptide) came in with a 50% inhibitory concentration (IC50) of 1 to 10 µM. Same read-out and setting: to HEL 10–22 L17I (peptide) belongs below 1 µM; to HEL 10–22 L17M (peptide), below 1 µM; to HEL 10–22 L17N (peptide), 1 to 10 µM. The substance HEL 10–22 L17T (peptide) yielded a half-inhibitory concentration (IC50) of 1 to 10 µM.

The substance HEL 10–22 L17V (peptide) had an IC50 below 1 µM. On the same count and under the same terms, to HEL 10–22 N19D (peptide) belongs 2 µM. Substance HEL 10–22 N19E (peptide) registered a concentration for half-maximal inhibition (IC50) of 1 to 10 µM. HEL 10–22 N19F (peptide) yielded a 50% inhibitory concentration (IC50) of 1 to 10 µM. On the same count and under the same terms, the result for HEL 10–22 N19G (peptide) reads below 1 µM. Consider HEL 10–22 N19Q (peptide), for which the IC50 is 2 µM. On the same count and under the same terms, to HEL 10–22 N19R (peptide) belongs 1 to 10 µM.

Substance HEL 10–22 N19S (peptide) had an IC50 below 1 µM. On the same count and under the same terms, the result for HEL 10–22 N19Y (peptide) reads above 50 µM; that for HEL 10–22 R14A (peptide), 0.3 µM. As for HEL 10–22 R14G (peptide), the half-inhibitory concentration (IC50) lay within 1 to 10 µM. Still for that read-out and setting: to HEL 10–22 R14S (peptide) belongs 1 to 10 µM; to HEL 10–22 R14W (peptide), 1 to 10 µM. In the case of HEL 10–22 R21K (peptide), the IC50 turned out to be 0.35 µM. The same measure, in the same setting: to HEL 10–22 R21P (peptide) belongs 0.35 µM; to HEL 10–22 R21Y (peptide), 0.3 µM. HEL 10–22 Y20F (peptide) yielded an IC50 below 1 µM. HEL 10–22 Y20H (peptide): the IC50 is 1 to 10 µM.

HEL 10–22 Y20M (peptide) yielded an IC50 of 1 to 10 µM. In the case of HEL 10–22 Y20N (peptide), the IC50 lay in the range of 1 to 10 µM. Same read-out and setting: the result for HEL 10–22 Y20Q (peptide) reads 2 µM; that for HEL 10–22 Y20R (peptide), below 1 µM. On the same count and under the same terms, the result for HEL 10–22 Y20W (peptide) reads 1 to 10 µM.

As to HEL 10–23 (peptide), the concentration for half-maximal inhibition (IC50) worked out at 0.295 µM. Still for that read-out and setting: the result for HEL 10–27 (peptide) reads 0.3 µM; that for HEL 11–27 (peptide), 0.3 µM; that for HEL 12–23 (peptide), 0.25 µM. Still for that read-out and setting: the result for HEL 12–27 (peptide) reads 0.3 µM. On the same count and under the same terms, the result for HEL 13–22 (peptide) reads 0.25 µM; that for HEL 13–23 (peptide), 0.2 µM; that for HEL 13–27 (peptide), 0.3 µM. In turn, HEL 14–27 (peptide) yielded an IC50 of 2 µM. Consider HEL 16–27 (peptide), for which the half-inhibitory concentration (IC50) is above 50 µM. With HEL 17–27 (peptide), the IC50 is above 50 µM. For the substance HEL 18–27 (peptide), the 50% inhibitory concentration (IC50) was above 50 µM. Same read-out and setting: the result for HEL 19–27 (peptide) reads above 50 µM; that for human proinsulin 5–19 (peptide), 30 µM; that for human proinsulin 9–23 (peptide), 1 µM. Still for that read-out and setting: to human proinsulin 21–35 (peptide) belongs 1 µM. The same measure, in the same setting: the result for human proinsulin 25–39 (peptide) reads 1 µM; that for human proinsulin 49–63 (peptide), 1 µM.

The next experiment has as its system purified I-A^g7. The experiment can be described thus: biochemical. The format is binding, NOD mouse.
Settings: not given
On to “KPKATAEQLKTVMDD [In serum albumin (560–574), reference compound]”, for which the “binding to I-A^g7 (in words)” value was “did not bind”.

The target of the next experiment is T1, purified I-A^g7 (Mus musculus, UniProt P04228+Q31135).
T1 sequence (P04228 24-256): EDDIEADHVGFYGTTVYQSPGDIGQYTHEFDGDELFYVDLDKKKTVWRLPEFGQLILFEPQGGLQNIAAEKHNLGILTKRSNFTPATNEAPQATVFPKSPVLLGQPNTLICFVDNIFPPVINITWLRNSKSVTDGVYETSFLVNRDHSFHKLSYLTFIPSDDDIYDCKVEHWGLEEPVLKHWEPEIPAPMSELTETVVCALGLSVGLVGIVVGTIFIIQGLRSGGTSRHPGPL
T1 sequence (Q31135 1-263): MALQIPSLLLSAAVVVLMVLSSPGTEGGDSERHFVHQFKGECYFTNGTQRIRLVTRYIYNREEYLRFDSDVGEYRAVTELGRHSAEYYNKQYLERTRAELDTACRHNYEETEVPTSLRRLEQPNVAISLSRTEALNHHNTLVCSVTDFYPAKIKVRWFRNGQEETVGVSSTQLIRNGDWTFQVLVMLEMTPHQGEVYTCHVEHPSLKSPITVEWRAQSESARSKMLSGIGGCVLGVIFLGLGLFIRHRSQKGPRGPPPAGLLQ
Briefly: biochemical.
Settings: not given
The format is binding, NOD mouse.
Turning to AAAMKRHGLDNYR-NH2 [HEL 9–21], half-maximal inhibition (IC50) was put at 0.3 µM. Still for that read-out and setting: to AAAMKRHGLDNYRG-NH2 [HEL 9–22] belongs 0.3 µM; to AAAMKRHGLDNYRGYS-NH2 [HEL 9–24], 0.2 µM; to AAAMKRHGLDNYRGYSL-NH2 [HEL 9–25], 0.3 µM. The same measure, in the same setting: the result for AAAMKRHGLDNYRGYSLG-NH2 [HEL 9–26] reads 0.3 µM; that for AAAMKRHGLDNYRGYSLGN-NH2 [HEL 9–27], 0.35 µM.

Turning to AAMKRHGLDNYRGYSLGN-NH2 [HEL 10–27], the concentration for half-maximal inhibition (IC50) came out at 0.3 µM. The same measure, in the same setting: to AMKRHGLDNYRGYSLGN-NH2 [HEL 11–27] belongs 0.3 µM; to HGLDNYRGYSLGN-NH2 [HEL 15–27], 20 µM.

Regarding KRHGLDNYRG-NH2 [HEL 13–22], the 50% inhibitory concentration (IC50) was determined as 0.25 µM. The substance KRHGLDNYRGY-NH2 [HEL 13–23] showed a 50% inhibitory concentration (IC50) of 0.2 µM. The same measure, in the same setting: the result for KRHGLDNYRGYSLGN-NH2 [HEL 13–27] reads 0.3 µM; that for MKRHGLDNYRGY-NH2 [HEL 12–23], 0.25 µM. On the same count and under the same terms, to MKRHGLDNYRGYSLGN-NH2 [HEL 12–27] belongs 0.3 µM; to RHGLDNYRGYSLGN-NH2 [HEL 14–27], 2 µM.

These data come from publication PMC2196246 (The Journal of Experimental Medicine, 1997).
